Fewer inactive variants are shown than the library holds.
Columns and labels:
biotinyl-Ile-oxazolone = assay: self-aminoacylation, catalytic enhancement (BIO) (fold over background); higher = more active; k-Seq, kA / k0A0; sequences stand for … in GGGAAUGGAUCCACAUCUACGAAUUC…UUCACUGCAGACUUGACGAAGCUG
Summary of the method: (§1)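 Mutagenized RNA pools with a 21-nt variable region (0.43 μM) reacted with each biotinyl-aminoacyl-oxazolone at 2–1250 μM. Reactions ran in 50 μL HEPES/NaCl/KCl/MgCl2/CaCl2 buffer with 5% acetonitrile, pH 6.9–7.0, for 90 minutes at room temperature. Streptavidin-captured RNA was quantified by triplicate qPCR and Illumina sequencing, and per-sequence fraction reacted was fit to a pseudo-first-order model with 1000 bootstraps. Catalytic enhancement is median kA divided by the uncatalyzed rate, the low-activity peak of a bimodal Gaussian fit.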

biotinyl-Trp-oxazolone = assay: self-aminoacylation, catalytic enhancement (BWO) (fold over background); higher = more active; k-Seq, kA / k0A0; sequences stand for … in GGGAAUGGAUCCACAUCUACGAAUUC…UUCACUGCAGACUUGACGAAGCUG
Summary of the method: as §1

biotinyl-Met-oxazolone = assay: self-aminoacylation, catalytic enhancement (BMO) (fold over background); higher = more active; k-Seq, kA / k0A0; sequences stand for … in GGGAAUGGAUCCACAUCUACGAAUUC…UUCACUGCAGACUUGACGAAGCUG
Summary of the method: as §1

biotinyl-Phe-oxazolone = assay: self-aminoacylation, catalytic enhancement (BFO) (fold over background); higher = more active; k-Seq, kA / k0A0; sequences stand for … in GGGAAUGGAUCCACAUCUACGAAUUC…UUCACUGCAGACUUGACGAAGCUG
Summary of the method: as §1

biotinyl-Leu-oxazolone = assay: self-aminoacylation, catalytic enhancement (BLO) (fold over background); higher = more active; k-Seq, kA / k0A0; sequences stand for … in GGGAAUGGAUCCACAUCUACGAAUUC…UUCACUGCAGACUUGACGAAGCUG
Summary of the method: as §1

biotinyl-Val-oxazolone = assay: self-aminoacylation, catalytic enhancement (BVO) (fold over background); higher = more active; k-Seq, kA / k0A0; sequences stand for … in GGGAAUGGAUCCACAUCUACGAAUUC…UUCACUGCAGACUUGACGAAGCUG
Summary of the method: as §1

Sequence | self-aminoacylation (biotinyl-Ile-oxazolone) | self-aminoacylation (biotinyl-Trp-oxazolone) | self-aminoacylation (biotinyl-Met-oxazolone) | self-aminoacylation (biotinyl-Phe-oxazolone) | self-aminoacylation (biotinyl-Leu-oxazolone) | self-aminoacylation (biotinyl-Val-oxazolone)
CUACUUCAAACAUUCGGUCAG [Fam1A.1 aminoacylation ribozyme variant] | 0.901 | 0.688 | 0.886 | 0.674 | 0.861 | 0.992
CUACUUCAAACAUUCGGUCUC [Fam1A.1 aminoacylation ribozyme variant] | 0.986 | 0.715 | 0.849 | 0.796 | 0.806 | 0.975
CUACUUCAAACCAACGGUCUG [Fam1A.1 aminoacylation ribozyme variant] | 0.786 | 0.556 | 0.68 | 1.44 | 0.587 | 1.02
CUACUUCAAACCAGCGGUCUG [Fam1A.1 aminoacylation ribozyme variant] | 0.921 | 0.677 | 0.722 | 0.715 | 1.09 | 1.13
CUACUUCAAACCAUCGGACUG [Fam1A.1 aminoacylation ribozyme variant] | 0.8 | 0.444 | 0.669 | 0.578 | 0.747 | 0.873
CUACUUCAAACCAUCGGUCCG [Fam1A.1 aminoacylation ribozyme variant] | 0.761 | 0.99 | 0.868 | 0.607 | 0.996 | 0.922
CUACUUCAAACGACCGGUCUG [Fam1A.1 aminoacylation ribozyme variant] | 0.601 | 0.229 | 0.698 | 0.832 | 0.621 | 0.74
CUACUUCAAACGAUCCGUCUG [Fam1A.1 aminoacylation ribozyme variant] | 0.783 | 0.755 | 0.958 | 0.594 | 0.787 | 0.808
CUACUUCAAACGAUCGCUCUG [Fam1A.1 aminoacylation ribozyme variant] | 0.842 | 0.678 | 0.689 | 1.11 | 0.654 | 0.838
CUACUUCAAACGAUCGGGCUG [Fam1A.1 aminoacylation ribozyme variant] | 1.49 | 1.28 | 1.09 | 1.11 | 1.23 | 1.45
CUACUUCAAACGAUCGGUCUA [Fam1A.1 aminoacylation ribozyme variant] | 0.757 | 0.594 | 0.744 | 0.678 | 0.615 | 0.731
CUACUUCAAACGAUGGGUCUG [Fam1A.1 aminoacylation ribozyme variant] | 0.746 | 0.62 | 0.58 | 0.674 | 0.764 | 1
CUACUUCAAACUAGCGGUCUG [Fam1A.1 aminoacylation ribozyme variant] | 0.932 | 0.732 | 0.547 | 1.25 | 0.79 | 0.803
CUACUUCAAAGAACCGGUCUG [Fam1A.1 aminoacylation ribozyme variant] | 0.994 | 0.734 | 0.715 | 0.687 | 0.847 | 0.815
CUACUUCAAAGAAGCGGUCUG [Fam1A.1 aminoacylation ribozyme variant] | 1.09 | 0.832 | 1.01 | 1.17 | 0.82 | 0.988
CUACUUCAAAGAAUCCGUCUG [Fam1A.1 aminoacylation ribozyme variant] | 1.06 | 0.738 | 0.942 | 0.744 | 1.07 | 0.915
CUACUUCAAAGAAUCGGACUG [Fam1A.1 aminoacylation ribozyme variant] | 0.992 | 0.932 | 0.91 | 1.29 | 0.818 | 0.808
CUACUUCAAAGUAUCGGUCUG [Fam1A.1 aminoacylation ribozyme variant] | 0.979 | 0.979 | 0.824 | 1.44 | 0.941 | 0.975
CUACUUCAAAUAAUCGAUCUG [Fam1A.1 aminoacylation ribozyme variant] | 0.669 | 0.839 | 0.534 | 1.94 | 0.495 | 0.592
CUACUUCAAAUAAUCGGUCCG [Fam1A.1 aminoacylation ribozyme variant] | 0.585 | 1.76 | 0.599 | 2.68 | 0.654 | 0.657
CUACUUCAACCAAUAGGUCUG [Fam1A.1 aminoacylation ribozyme variant] | 0.947 | 0.753 | 0.703 | 1.05 | 0.743 | 0.777

Sequence | self-aminoacylation (biotinyl-Ile-oxazolone) | self-aminoacylation (biotinyl-Trp-oxazolone) | self-aminoacylation (biotinyl-Met-oxazolone) | self-aminoacylation (biotinyl-Phe-oxazolone) | self-aminoacylation (biotinyl-Leu-oxazolone) | self-aminoacylation (biotinyl-Val-oxazolone)
CUACUUCAACCAAUCGGGCUG [Fam1A.1 aminoacylation ribozyme variant] | 1.71 | 6.74 | 1.24 | 7.63 | 1.68 | 1.22
CUACUUCAACCAAUCGGUCUC [Fam1A.1 aminoacylation ribozyme variant] | 0.904 | 12.9 | 0.76 | 23.8 | 1.19 | 0.98
CUACUUCAACCAAUCGGUCUU [Fam1A.1 aminoacylation ribozyme variant] | 1.02 | 8.43 | 0.975 | 16 | 1.32 | 0.934
CUACUUCAAGCAAUCGGUCUU [Fam1A.1 aminoacylation ribozyme variant] | 1.07 | 4.63 | 0.87 | 6.92 | 0.97 | 1.06
CUACUUCAAGCACUCGGUCUG [Fam1A.1 aminoacylation ribozyme variant] | 1.23 | 1.28 | 0.971 | 2.08 | 1.17 | 1.3
CUACUUCAAGCUAUCGGUCUG [Fam1A.1 aminoacylation ribozyme variant] | 0.839 | 0.43 | 0.942 | 0.617 | 0.689 | 0.892
CUACUUCAAUCAACCGGUCUG [Fam1A.1 aminoacylation ribozyme variant] | 0.925 | 0.663 | 0.525 | 0.9 | 0.729 | 0.806
CUACUUCAAUCAUUCGGUCUG [Fam1A.1 aminoacylation ribozyme variant] | 1.1 | 1.13 | 0.805 | 0.652 | 0.896 | 0.992
CUACUUCACAAAAUCGGUCUG [Fam1A.1 aminoacylation ribozyme variant] | 0.985 | 0.739 | 0.863 | 0.608 | 0.823 | 0.831
CUACUUCACACAACCGGUCUG [Fam1A.1 aminoacylation ribozyme variant] | 0.858 | 0.778 | 1.2 | 1.07 | 0.892 | 1.01
CUACUUCACACAAUCGAUCUG [Fam1A.1 aminoacylation ribozyme variant] | 0.888 | 0.691 | 0.686 | 0.726 | 0.784 | 0.677
CUACUUCACAGAAUCGGUCUG [Fam1A.1 aminoacylation ribozyme variant] | 1.03 | 0.917 | 1.05 | 1.11 | 1.1 | 1.02
CUACUUCAGACAAUCCGUCUG [Fam1A.1 aminoacylation ribozyme variant] | 0.902 | 1.23 | 0.675 | 1.86 | 0.963 | 0.826
CUACUUCAGACAAUCGGUCCG [Fam1A.1 aminoacylation ribozyme variant] | 0.811 | 1.38 | 1 | 0.81 | 1.01 | 0.695
CUACUUCAGACAAUCGGUCUU [Fam1A.1 aminoacylation ribozyme variant] | 0.967 | 0.663 | 0.904 | 1.11 | 0.919 | 0.961
CUACUUCAGACGAUCGGUCUG [Fam1A.1 aminoacylation ribozyme variant] | 0.727 | 0.788 | 1.24 | 0.484 | 0.954 | 1.01
CUACUUCAUACAACCGGUCUG [Fam1A.1 aminoacylation ribozyme variant] | 0.925 | 0.415 | 0.621 | 0.504 | 0.751 | 0.84
CUACUUCCAACAAUCGGGCUG [Fam1A.1 aminoacylation ribozyme variant] | 1.59 | 0.982 | 2.11 | 0.889 | 1.28 | 1.27
CUACUUCCAACAAUGGGUCUG [Fam1A.1 aminoacylation ribozyme variant] | 0.951 | 0.789 | 0.932 | 0.635 | 0.795 | 0.835
CUACUUCCAACAAUUGGUCUG [Fam1A.1 aminoacylation ribozyme variant] | 0.817 | 0.536 | 0.718 | 0.55 | 0.776 | 0.839
CUACUUCCACCAAUCGGUCUG [Fam1A.1 aminoacylation ribozyme variant] | 0.912 | 0.387 | 0.684 | 0.84 | 0.793 | 0.877

— the supplement of paper PMC9233669
